Assay results taken from patent KR20180006452A (dated 2018).
Residue numbers refer to the chain shown, from its start. In names and notes the source's numbering stands. Blank lines part the entries; values can stand above or below the binder they belong to.

What was measured:
가용형 인간 FcγRIIb = target: T1, 가용형 인간 FcγRIIb (human, UniProt P31994 43-217, limits assumed); test: SPR (BIACORE T200), hFcγRIIb captured by anti-His antibody, IgE-antibody complex as analyte, pH 7.4, 25C
T1 construct: also called hFcγRIIb; hFcγRII2b; not shown: His tag
T1 sequence (looked up): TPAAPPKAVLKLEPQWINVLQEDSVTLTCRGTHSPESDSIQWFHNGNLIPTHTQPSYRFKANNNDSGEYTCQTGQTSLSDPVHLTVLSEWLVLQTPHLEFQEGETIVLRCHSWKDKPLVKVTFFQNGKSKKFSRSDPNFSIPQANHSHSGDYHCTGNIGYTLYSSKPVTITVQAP

가용형 인간 FcγRIa = target: T2, 가용형 인간 FcγRIa (human, UniProt P12314 16-292, limits assumed); test: SPR (BIACORE T200), antibody captured on rProtein L, soluble FcγR as analyte, 20C
T2 construct: also called hFcγRIa; not shown: His tag
T2 sequence (P12314 16-292 limits assumed): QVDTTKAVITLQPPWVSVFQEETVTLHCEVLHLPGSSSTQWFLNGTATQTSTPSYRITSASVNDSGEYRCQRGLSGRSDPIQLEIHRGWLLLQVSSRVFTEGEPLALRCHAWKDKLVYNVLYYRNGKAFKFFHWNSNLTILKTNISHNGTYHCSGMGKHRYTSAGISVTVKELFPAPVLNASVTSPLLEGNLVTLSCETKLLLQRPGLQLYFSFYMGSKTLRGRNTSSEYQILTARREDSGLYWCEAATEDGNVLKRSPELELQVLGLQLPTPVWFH

가용형 인간 FcγRIIIa = target: T3, 가용형 인간 FcγRIIIa (human, UniProt P08637 17-208, limits assumed); test: as above
T3 construct: also called hFcγRIIIa; not shown: His tag
T3 sequence (P08637 17-208 limits assumed): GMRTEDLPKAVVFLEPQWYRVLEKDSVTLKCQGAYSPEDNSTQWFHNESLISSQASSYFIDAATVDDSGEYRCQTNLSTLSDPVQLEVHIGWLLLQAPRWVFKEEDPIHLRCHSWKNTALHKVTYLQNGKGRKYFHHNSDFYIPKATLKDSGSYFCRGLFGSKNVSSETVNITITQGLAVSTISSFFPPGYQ

가용형 필리핀 원숭이 FcγRIIIa = target: T4, 가용형 필리핀 원숭이 FcγRIIIa (필리핀 원숭이 (cynomolgus monkey), UniProt Q8SPW2 17-208, limits assumed); test: as above
T4 construct: also called cynoFcγRIIIa; not shown: His tag
T4 sequence (Q8SPW2 17-208 limits assumed): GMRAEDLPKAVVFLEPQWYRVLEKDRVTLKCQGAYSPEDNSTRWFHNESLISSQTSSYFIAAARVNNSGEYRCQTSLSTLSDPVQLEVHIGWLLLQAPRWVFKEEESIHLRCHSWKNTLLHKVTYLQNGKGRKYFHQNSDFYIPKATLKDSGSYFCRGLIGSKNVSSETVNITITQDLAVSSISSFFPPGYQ

- binding result (가용형 인간 FcγRIIb): binds
B1: Ab1H-P1394m/Ab1L (antibody, human IgG1, kappa)
heavy: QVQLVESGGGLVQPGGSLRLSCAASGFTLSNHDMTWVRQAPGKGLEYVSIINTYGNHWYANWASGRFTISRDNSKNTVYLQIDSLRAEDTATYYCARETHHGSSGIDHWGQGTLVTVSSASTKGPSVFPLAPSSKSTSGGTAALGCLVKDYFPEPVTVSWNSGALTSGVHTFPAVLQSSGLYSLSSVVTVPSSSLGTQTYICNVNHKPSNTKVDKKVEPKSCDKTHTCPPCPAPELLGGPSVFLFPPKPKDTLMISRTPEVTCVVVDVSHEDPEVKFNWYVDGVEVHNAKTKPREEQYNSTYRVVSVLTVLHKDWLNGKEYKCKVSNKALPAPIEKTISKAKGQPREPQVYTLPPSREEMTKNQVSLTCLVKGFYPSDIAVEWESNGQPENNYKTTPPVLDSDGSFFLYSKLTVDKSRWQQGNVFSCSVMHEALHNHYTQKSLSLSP
light: DIQMTQSPSSVSASVGDRVTITCQASESIYSGLAWYQQKPGQPPKLLIYDHSTLASGVPSRFSGSGSGTEYALTISSLQPEDFATYYCQHADYAHHSDNVFGGGTKVEIKRTVAAPSVFIFPPSDEQLKSGTASVVCLLNNFYPREAKVQWKVDNALQSGNSQESVTEQDSKDSTYSLSSTLTLSKADYEKHKVYACEVTHQGLSSPVTKSFNRGEC
notes: Ab1H with Q311K (EU numbering)

- binding result (가용형 인간 FcγRIa): no binding
- binding result (가용형 인간 FcγRIIIa): no binding
- binding result (가용형 필리핀 원숭이 FcγRIIIa): no binding
B2: H1009/L395-F1886s (antibody)
heavy: QVQLVESGGGLVQPGGSLRLSCAASGFTFSDYYLSWVRQAPGKGLEWVGLIRNKDNYHTPEYSASVKGRFTISRDDSKNSLYLTMSDLKTEDTAVYYCARENHRYDVELAYWGQGTLVTVSSASTKGPSVFPLAPSSKSTSGGTAALGCLVKDYFPEPVTVSWNSGALTSGVHTFPAVLQSSGLYSLSSVVTVPSSSLGTQTYICNVNHKPSNTKVDKKVEPKSCDKTHTCPPCPAPELRRGPKVFLFPPKPKDTLMISRTPEVTCVVVDVSHEDPEVKFNWYVDGVEVHNAKTKPREEQYNSTYRVVSVLTVLHQDWLNGKEYKCKVSNKALPAPIEKTISKAKGQPREPQVYTLPPSREEMTKNQVSLTCLVKGFYPSDIAVEWESNGQPENNYKTTPPVLDSDGSFFLYSKLTVDKSRWQQGNVFSCSVLHEALHAHTTRKELSLSP
light: DIQMTQSPSSLSASVGDRVTITCRASEIIYSYLAWYQQKPGKAPKLLIYKAKTHADGVPSRFSGSGSGTDFTFTISSLQPEDIATYYCKHHFGFPRTFGQGTKVEIKRTVAAPSVFIFPPSDEQLKSGTASVVCLLNNFYPREAKVQWKVDNALQSGNSQESVTEQDSKDSTYSLSSTLTLSKADYEKHKVYACEVTHQGLSSPVTKSFNRGEC
notes: also called H1009-F1886s/L395-k0MT

- binding result (가용형 인간 FcγRIa): no binding
- binding result (가용형 인간 FcγRIIIa): no binding
- binding result (가용형 필리핀 원숭이 FcγRIIIa): no binding
B3: H1009/L395-F1974m (antibody)
heavy: B2 heavy with K244S, A332G, A335S, P336S
light: B2 light
notes: also called H1009-F1974m/L395-k0MT
